Experimental data as given in patent US20050136043A1, “TGFbeta signaling inhibitors” (Ludwig Institute for Cancer Research, priority 2003, published 2005).

How the values were obtained:
GST-TβR-I = molecular target: T1, GST-TβR-I (Homo sapiens, UniProt P36897, T204D); assay: Phosphorylation of GST-Smad2 by GST-TβR-I, in vitro kinase assay; assay type: biochemical; conditions: for Inhibition of phosphorylation at the C-terminus of GST-Smad2: FIG. 4B; for Concentration at which effect of Sm2 peptides was observed / Concentration of maximal inhibition: in vitro kinase assay; for Concentration of maximal inhibition: data not shown
T1 construct: the complete cytoplasmic part (amino acid residues 148-503) of constitutively active TβR-I (T204D) FLAG-tagged at the C-terminus; made in house; host or cells: E. coli
T1 sequence (P36897 148-503 T204D): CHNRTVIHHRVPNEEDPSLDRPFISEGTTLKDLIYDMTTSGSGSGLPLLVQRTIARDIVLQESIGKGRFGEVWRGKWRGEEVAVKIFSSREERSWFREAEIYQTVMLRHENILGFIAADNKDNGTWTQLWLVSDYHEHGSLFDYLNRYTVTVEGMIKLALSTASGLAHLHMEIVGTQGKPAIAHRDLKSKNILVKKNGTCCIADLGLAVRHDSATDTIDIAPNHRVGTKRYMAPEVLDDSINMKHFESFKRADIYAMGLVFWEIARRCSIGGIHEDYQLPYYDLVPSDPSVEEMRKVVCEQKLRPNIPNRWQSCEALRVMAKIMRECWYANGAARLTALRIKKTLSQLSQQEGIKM
Method: In vitro kinase assay: GST-TβRI activity was assayed in vitro using the known TβR-I substrates GST-Smad3deltaMH1, GST-Smad2; GST-Smad1 was used as a control for specificity. The reaction mixture (20 μl) contained 20 mM HEPES (pH 7.4), 10 mM MgCl2, 2 mM MnCl2, 1 mM dithiothreitol (DTT), 5 μM ATP plus 0.5 μCi [γ^32P]ATP (Redivue, Amersham Biosciences), and inhibitors at different concentrations. The reaction was initiated by an addition of 0.02 μg purified GST-TβRI, followed by incubation at 22° C. for 20 min. Reaction was terminated by addition of 5 μl of 5× SDS-sample buffer. Samples were subjected to SDS-PAGE followed by analysis in a FujiX2000 phosphorimager. For all in vitro enzyme assays, the percent inhibition was calculated as 100×(1-Ai/A0), where Ai and A0 are levels of GST-Smad phosphorylation in the presence and absence of inhibitors, respectively. […] Phosphorylated GST-Smad3deltaMH1 and autophosphorylated GST-TβRI were analyzed by tryptic phosphopeptide mapping, as described previously.
Phosphorylation of GST-Smad2 by GST-TβR-I was performed in an in vitro kinase assay (FIG. 4B). The peptides were added as indicated.

[1] = molecular target: T2, constitutively active TβR-I (Homo sapiens, UniProt P36897, T204D); assay: In vitro kinase assay with immunoprecipitated constitutively active TβR-I expressed in Mv1Lu cells; assay type: biochemical; conditions: immunoprecipitated from Mv1Lu cells, data not shown
T2 construct: made in house; host or cells: Mv1Lu cells (expressed, immunoprecipitated)
T2 sequence (P36897 34-503 T204D): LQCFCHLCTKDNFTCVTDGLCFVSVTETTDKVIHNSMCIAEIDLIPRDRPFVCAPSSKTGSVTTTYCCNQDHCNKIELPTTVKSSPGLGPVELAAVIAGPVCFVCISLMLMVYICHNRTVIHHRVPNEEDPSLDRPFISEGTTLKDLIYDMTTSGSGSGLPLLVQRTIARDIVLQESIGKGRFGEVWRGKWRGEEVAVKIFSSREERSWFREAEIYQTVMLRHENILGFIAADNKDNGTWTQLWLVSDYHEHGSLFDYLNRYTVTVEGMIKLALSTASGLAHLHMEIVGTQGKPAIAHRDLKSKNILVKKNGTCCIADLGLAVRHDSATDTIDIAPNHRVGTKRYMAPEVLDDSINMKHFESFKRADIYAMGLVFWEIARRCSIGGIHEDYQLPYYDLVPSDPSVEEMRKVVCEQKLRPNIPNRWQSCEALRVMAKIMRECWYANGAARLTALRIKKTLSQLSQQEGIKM

## RQIKIWFQNRRMKWKKTQMGSPSVRCSSMS (listed as Homo sapiens) [antp-Sm2S, penetratin fused to the C-terminus of wild-type Smad2]
GST-TβR-I
  Inhibition of phosphorylation at the C-terminus of GST-Smad2: less pronounced
  Concentration at which effect of Sm2 peptides was observed: 10 µM
  Concentration of maximal inhibition: 200 µM
[1]
  Inhibition of autophosphorylation of TβR-I: inhibited autophosphorylation

## RQIKIWFQNRRMKWKKTQMGSPSVRCSAMA (listed as Homo sapiens) [antp-Sm2A]
GST-TβR-I
  Inhibition of phosphorylation at the C-terminus of GST-Smad2: inhibited
  Concentration at which effect of Sm2 peptides was observed: 10 µM
  Concentration of maximal inhibition: 200 µM
[1]
  Inhibition of autophosphorylation of TβR-I: inhibited autophosphorylation
